Measurements taken from patent US20130323263A1, “SPARC ANGIOGENIC DOMAIN AND METHODS OF USE” (ABRAXIS BIOSCIENCE, LLC, priority 2010, published 2013).

What was measured:
HUVEC [1] = assay: HUVEC (3-D) tube formation assay; type: cell-based; details: for angiogenic activity: FIG. 2
Procedure: (§1) Recombinant human SPARC and genetically engineered variants were expressed and purified using HEK 293 cells maintained in hollow fiber bio-reactors. The angiogenic activity of rhSPARC and its variants was evaluated using a HUVEC tube formation assay and a HUVEC sprout formation bead assay.
(§2) In the HUVEC tube formation assay, rhSPARC was pro-angiogenic at 10 μg/mL and anti-angiogenic at 100 μg/mL. […] Additional rhSPARC variants with deletions and single/double amino acid substitutions tested in these assays included: Q3 deletion (BIO2), an inversion of the putative angiogenic domain (BIOS), a double K>Q substitution in the proposed angiogenic domain (BIO11), the genetic ablation of the putative catephsin K recognition sites (BIO8), and a proteolytic degradation product of rhSPARC. Terminal amino acid analysis indicated the angiogenic activity is localized to SEQ ID NO: 1.

HUVEC [2] = assay: HUVEC sprout formation bead assay; type: cell-based
Procedure: as §1, §2

B1: rhSPARC: Recombinant human SPARC expressed and purified using HEK 293 cells (protein, UniProt P09486 18-303, looked up)
SPARC: APQQEALPDETEVVEETVAEVTEVSVGANPVQVEVGEFDDGAEETEEEVVAENPCQNHHCKHGKVCELDENNTPMCVCQDPTSCPAPIGEFEKVCSNDNKTFDSSCHFFATKCTLEGTKKGHKLHLDYIGPCKYIPPCLDSELTEFPLRMRDWLKNVLVTLYERDEDNNLLTEKQKLRVKKIHENEKRLEAGDHPVELLARDFEKNYNMYIFPVHWQFGQLDQHPIDGYLSHTELAPLRAPLIPMEHCTTRFFETCDLDNDKYIALDEWAGCFGIKQKDIDKDLVI
HUVEC [1]; HUVEC 3-D tube formation, concentrations up to 100 ug/ml, FIG. 4
  angiogenic behavior over concentration: increases as the concentration approaches 10 ug/ml and drops off as it approaches 100 ug/ml
HUVEC [1]; at 10 μg/mL
  angiogenic activity: pro-angiogenic
HUVEC [1]; at 100 μg/mL
  angiogenic activity: anti-angiogenic
HUVEC [2]
  blood vessel maturity on addition of the protein: more mature blood vessels well supported by pericytes
